The target in experiment [1] is T1, HER2 on the surface of human tumour cell lines (human, UniProt P04626 23-1255).
T1 construct: whole, on cells; also called ErbB2; Her2 receptor
Kind of experiment: flow cytometry on SKOV3 cells. (In flow cytometry, cells or beads pass a laser one at a time.)
Description: (§1) Binding of the test antibodies to the surface of SKOV3 cells was determined by flow cytometry. Cells were washed with PBS and resuspended in DMEM at 1×10⁵ cells/100 μl. 100 μl cell suspension was added into each microcentrifuge tube, followed by 10 μl/tube of the antibody variants. The tubes were incubated for 2 hr 4° C. on a rotator. The microcentrifuge tubes were centrifuged for 2 min 2000 RPM at room temperature and the cell pellets washed with 500 μl media. Each cell pellet was resuspended 100 μl of fluorochrome-labelled secondary antibody diluted in media to 2 μg/sample. The samples were then incubated for 1 hr at 4° C. on a rotator. After incubation, the cells were centrifuged for 2 min at 2000 RPM and washed in media. The cells were resuspended in 500 μl media, filtered in tube containing 5 μl propidium iodide (PI) and analyzed on a BD LSRII flow cytometer according to the manufacturer's instructions.

The target of experiment [2] is T1, HER2 on the surface of human tumour …. In words: flow cytometry on SKOV3 cells. The source holds these as a separate data set.
Description: as §1
For experiment [3] the target is unchanged. In words: flow cytometry on MALME-3M cells.

This note sets out measurements from patent US20170174783A1 (Zymeworks, published 2017).

Broadly, the Kd is the concentration at which binding is half-saturated. Broadly, the EC50 (read off the curve) is the concentration that produces a half-maximal response. A high value points to a need for much substance.

B1: OA4-scFv-BID2 (antibody)
chain 1: QVQLVQSGAEVKKPGESLKISCKGSGYSFTSYWIAWVRQMPGKGLEYMGLIYPGDSDTKYSPSFQGQVTISVDKSVSTAYLQWSSLKPSDSAVYFCARHDVGYCTDRTCAKWPEWLGVWGQGTLVTVSSGGGGSSGGGSGGGGSQSVLTQPPSVSAAPGQKVTISCSGSSSNIGNNYVSWYQQLPGTAPKLLIYDHTNRPAGVPDRFSGSKSGTSASLAISGFRSEDEADYYCASWDYTLSGWVFGGGTKLTVLGAAEPKSSDKTHTCPPCPAPELLGGPSVFLFPPKPKDTLMISRTPEVTCVVVDVSHEDPEVKFNWYVDGVEVHNAKTKPREEQYNSTYRVVSVLTVLHQDWLNGKEYKCKVSNKALPAPIEKTISKAKGQPREPQVYTYPPSRDELTKNQVSLTCLVKGFYPSDIAVEWESNGQPENNYKTTPPVLDSDGSFALVSKLTVDKSRWQQGNVFSCSVMHEALHNHYTQKSLSLSPGK
chain 2: not shown
notes: also called 878
In experiment [1], B1 displayed a Kd of 12.4 nM. In addition, in experiment [2], the “fold difference in Bmax, OA4-scFv-BID2 against FSA-scFv-BID2” value is 1.96 fold and the “fold difference in KD, OA4-scFv-BID2 against FSA-scFv-BID2” value worked out at 2.03 fold. The concentration for a half-maximal effect (EC50 (read off the curve)) in experiment [3] was ~30 nM.
